To fix the notation:
B1: VACV M2 (vaccinia virus M2), recombinant, His-tagged (natural protein)
chain: VEYKNTICPPRQDYRYWYFAAELTIGVNYDINSTIIGECHMSESYIDRNANIVLTGYGLEINMTIMDTDQRFVAAAEGVGKDNKLSVLLFTTQRLDKVHHNISVTITCMEMNCGTTKYDSDLPESIHKSSSCDITINGSCVTCVNLETDPTKINPHYLHPKDKYLYHNSEYGMRGSYGVTFIDELNQCLLDIKELSYDICYRE

Series [1] deals with T1, human B7.2 ectodomain fused to human Fc (human, UniProt P42081-1 26-238).
T1 construct: also called hB7.2-Fc; hB7.2-hFc; not shown: Fc (human), C-terminal, kept
T1 sequence (looked up): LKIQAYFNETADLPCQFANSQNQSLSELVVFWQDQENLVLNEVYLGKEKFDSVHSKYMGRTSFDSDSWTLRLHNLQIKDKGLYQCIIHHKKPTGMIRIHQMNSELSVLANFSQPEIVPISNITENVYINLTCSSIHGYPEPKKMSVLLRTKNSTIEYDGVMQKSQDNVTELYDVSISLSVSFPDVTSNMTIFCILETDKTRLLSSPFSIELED
As to the kind of experiment: far-Western, overlay or dot blot. The following applies: both partners purified.

Series [2] deals with the molecule itself. The series can be described thus: non-reducing against reducing SDS-PAGE.
The target of series [3] is B1. The series can be described thus: far-Western, overlay or dot blot. The following applies: both partners purified.

This is an account of results in article PMC10457294 (Nature Communications, 2023).

Take B1: the binding result in series [1] and in series [2] was “binds” each time.

B2: human B7.1 ectodomain fused to human Fc (Fc fusion, UniProt P33681-1 35-234, looked up)
chain: VIHVTKEVKEVATLSCGHNVSVEELAQTRIYWQKEKKMVLTMMSGDMNIWPEYKNRTIFDITNNLSIVILALRPSDEGTYECVVLKYEKDAFKREHLAEVTLSVKADFPTPSISDFEIPTSNIRRIICSTSGGFPEPHLSWLENGEELNAINTTVSQDPETELYAVSSKLDFNMTTNHSFMCLIKYGHLRVNQTFNWNTT
notes: also called hB7.1-Fc; hB7.1-hFc; not shown: Fc (human), C-terminal, kept
On to B2, for which the binding result in series [3] is “binds”.
